Reference: the nanobody polyreactivity screen of Harvey et al. (2022)

assay: yeast display, Sf9 membrane polyspecificity reagent, FACS + sequencing; frameworks hold sequencing errors
Procedure, shortened: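 Synthetic nanobody libraries on Saccharomyces cerevisiae BJ5465 were galactose-induced for 36–48 hours, stained 1 hour at 4 °C with 10% biotinylated, detergent-solubilized Sf9 membrane reagent and enriched on streptavidin microbeads. FACS then separated cells into low and high (top ~1%) gates by anti-HA (expression) and streptavidin (reagent binding) fluorescence. Genes were colony-PCR amplified, MiSeq 2 × 250 sequenced and CDR-length filtered. A clone's polyreactivity label is that of its gate of origin.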

Row | Sequence | polyreactivity (PSR sort gate)
1 | QVQLVESGGGLVQAGGSLRLSCAASGSIFGAYAMGWYRQAPGKERELVAAISSSVDRTYYADSVKGRFTNSRDNAKNTVYLQMNCLKPEDTAVYYCAARWGTRDRTKYYYWGQGTQVTVSS | high polyreactivity
2 | QVQLVESGGGLVQAGGSLRLSCAASGSNFLRNAMGWYRQAPGKERELVAAIRWNAGSTYYADSVKGRFTISRDNAKNTVYLQMNSLKPEDTAVYFCAADGYYGRGYWIRTLKFDYWGQGTQVTVSS | high polyreactivity
3 | QVQLVESGGGLVQAGGSLRLSCAASGSIFDPYAMGWYRQAPGKERELVAAINGGSGSTFYADSVKGRFTISRDNAKNTVNLQMNSLKPEDTAVYYCAAKIWRYSPSYYPEPRGDYWGQGTQVTVSS | low polyreactivity
4 | QVQLVESGGGLVQAGGSLRLICAASGSIFRRYAMGWYRQAPGKERELVARITIRGGSTYYADSVKGRFTISRDNAKNTVYLQMNSLKPEDTAVYYCNTVVPASSGGAYRRYYYLGQGTQVTVSS | high polyreactivity
5 | QVQLVESGGGLVQAGGSLRLSCDASGFTFARYNMGWYRQAPGKERELVAAISSRGSSTYYADSVKGRFTISRDNAKNTVYLQMNSLKAEDTAVYYCAAPPRYGYDYWGQGTQVTVSS | high polyreactivity
6 | QVQLVESGGGLVQAGGSLRLSCAASGRIFSVYTMRWYRQAPGKERELVATISSGGRTNYADSVKGRFTISRDNAKNTVYLQMNSLKPEDTAVYYCAADWVYPPGLKDSVHFGEYDYWGQGTQVTVSS | low polyreactivity
7 | QVQLVESGGGLVQAGGSLRLSCAASGITFRFYAMGWYRQAPGKERELVAAISWSGGSTNYADSVKGRFTISRDNAKNTVYLQLNSLKPEDTAVYYCAADQYYYRYIRTSKYDYWGQGTQVTVSS | high polyreactivity
8 | QVQLVESGGGLVQAGGSLRLSCAASGRTFAWYAMGWYRQAPGKERELVAAISNVGSTYYADSVKGRFTISRDNAKNTVYLQMNSLKPEDTAVYYCNADAVSTDGREYWGQGTQVTVSS | low polyreactivity
9 | QVQLVESGGGLVQAGGSLRLSCAASGITLLGNAMGWYRQAPGTERELVAAISRRGGSTYYADSVKGRFTISRDNAKNTVYLQMNSLKPEDTAVYYCAADRYTVVYYRIFDYWGQGTQVTVSS | high polyreactivity
10 | QVQLVESGGGLVQAGGSLRLSCAASGRIFPHYARGWYRQAPGKERELFAAINVDGGRTYYADSVKGRFTISRDNAKNTVYLQLTSLKPEDTAVYYCAAKPVLYHEQDYGYAVEFNYWGQGTQVTVSS | low polyreactivity
11 | QVQLVESGGGLVQAGGSLRLSCAASGRILIRNAMGWYRQAPGKERELVAAINRGGGSTYYADSVKGRFTISRDNAKNTVYLQMNSLKPEDTAVYYCAADRKAGYSRVDGDYWGQGTQVTVSS | low polyreactivity
12 | QVQLVESGGGLVQAGGSLRLSCAASGFTFGSYAMGWYRQAPGKERELVAVITRSGRTNYADSVKGRFTISRDNAKNTVYLQMNSLKPEDTEVYYCNADDVDDEVSPDLTEMDYWGQGTQVTVSS | low polyreactivity
13 | QVQLVESGGGLVQAGGSLRLSCAASGFIFWPYVMGWYRQEPGTDRELVAAISLGDGSTYYADSVKGRFRLSRDHAKNTVYLQMNSLKPEDTAVYYCAADVTVAWYPVYPGFYYWGQGTQVTVSS | low polyreactivity
14 | QVQLVESGGGLVQAGGSLRLSCAASGRIFKYNAMGWYRQAPGKERELVAAISGRGVSTYYADSVKGRFTISRDNAKNPVYLQMNSLKPEDTAVYYCAAETVHGSADFDDWGQGTQVTVSS | low polyreactivity
15 | QVHLVESGGGLVQAGGSLRLSCAASGYIFGGYAMGWSRQAPGKEREFVAAISDISGSTYYADSVKGRFTISRDNAKNTVYLQMNSLKPEDTAVYYGGHTSTADEDYWGQGTQVTVSS | low polyreactivity
16 | QVQLVESGGGLVQAGGSLRLSCAASGGNFVFNAMGWYRQAPGKERELVAVITYSGGRTYYADSVKGRFTISRDNAKNTVYLQMNSLKPEDTAVYYCNARYGYPLGHSIYYYWGQGTQVTVSS | low polyreactivity
17 | QVQLVESGGGLVQAGGSLRLSCAASGRIFSRYAMGWYRQAHGKERELVAAISWSGGSTYYADSVKGRFTISRDNAKNTVYLQMNSLKPEDTAVYYCAARRSYSYGSWGQGTQVTVSS | high polyreactivity
18 | QVQLVESGGGLVQAGGSLRLSCAASGSTFRRNAMGWYRQAPGKERELVATISTRGGSTYYADSVKGRLTLSRDNAKNTVYLQMNSLKPEDTAVYYCAADRRSGYSRSKYGRGDYWGQGTQVTVSS | high polyreactivity
19 | QVQLVESGGGLVQAGGSLRLSCAASGFTFLRYALGWYRQAPGKERELVAAISTSGGSTSYADSVKGRFTITRDNAKNTVYLQMNSLKPEDTAVYYCNAVLYKVSISEYDYWGQGTQVTVSS | high polyreactivity
20 | QVQLVESGGGLVQAGGSLRLSCAASGITIRLYAKGWYRQAPGKERELVAGISSGGSTYYADSVKGRFTISRDNAKNTFYLQMNSLKPEDTAVYYCAAVSYGRRRPQHFEYWGQGTQVTVSS | high polyreactivity
21 | QVQLVESGGGLVQAGGSLRLSCAASGRIFSNNVMGWYIQAPGKERELVATISTDGRTNYADSVKGRFTISRDNAQNTVYLQMNSLKPEDTAVYFCAATGVTILLSSKSDYWGQGTQVTVSS | low polyreactivity
22 | QVQLVESGGGIVQAGGSLRLRCAASGSIFVPYAMGWYRQAPGKERELVAAISSRGGRTYYADSVKGRFTISRDNAKNTVYLQMNSLKPEDTAVYYCNKTAGSHIPRLEYWGQGTQVTVSS | low polyreactivity

Row | Sequence | polyreactivity (PSR sort gate)
23 | QVQLVESGGGLVQAGGSLRLSCAATGRTLPPNAMGSYRQAPGKERELVAGITWSGGSTYYADSVKGRFTISRDNAKNTVYLQMNSLKPEDTAVYYCAASRSFPGYGLYYYWGQGTQVTVSS | low polyreactivity
24 | QVQLVESGGGLVQAGGSLRLSCAASGSIFRYYAMGWYRQAPGKERELVAAITWRGGGTYYADSVKGRFTISRDNAKNTVYLQMNSLKPEDTAVYYCAKARFTRGTWFYYWGQGTQVTVSS | high polyreactivity
25 | QVPLVESGGGLVQAGGSLRLSCAASGSIFTVYAVGWYRQAPGKERELVASIRFSSGRTYYADSVKGRFTISRDNAKNTVYLHMTSLKPEDTAVYYCAAETVSWYRYYYWGQGTQVTVSS | high polyreactivity
26 | QVQLVESGGGLVQAGGSLRLSCAASGRILGDNVMGWYRQAPGKERELVAAISSGSGSTYYADSVKGRFTISRDNAKNTVYLQMNSLKPEDTAVYYCAAGPYIYPRYDYWGQGTQVTVSS | low polyreactivity
27 | QVQLVESGGGLVQAGGSLRLSCAASGNTFVKYTMGWYRQAPGKERELVAAITWSGGSTSYADSVKGRFTLSRDNAKNTVYLQMNSLKPEDTAVYYCAAAWSHSRWDTHDYWGQGTQVTVSS | low polyreactivity
28 | QVQLVESGGGLVQAGGSLRLSCAASGFISYYYAMGWYRHAPGKEREFVAAITSSGGSTRYADSVKGCFTISRDNAKNTVYLQMNSLKPEDTAVYYCAAGNPYFWPYDYWGQGTQVTVSS | low polyreactivity
29 | QDQLVESGGGLVQAGGSLRLSCAASGFTFGYYAMGWYRQAPGKERELVAAISTRGTSTYYADSVKGRFTISRDNAKNTVYLQMNSLKPEDTAVYYCARDKATDHGYNEFDYWGQGTQVTVSS | low polyreactivity
30 | QVQLVESGGGLVQAGGSLRLSCAAFPYAMGWYIPAPAKERELVAAISSSGTSTYYADSVKGRFTISRDNAKNTVYLQMNSLKPEDTAVYYCNTALSRLSQHDYWGQGTQVTVSS | low polyreactivity
31 | QVQLVESGGGLVQAGGSLRLSCAASGSTFVWYAMGWYRQAPGKERELVAVIDWSGGSTSYADSVKGRFTISRDNAKNTVYLQMNSLKPEDTAVYYCAADSGHYYGLYYWGQGTQVTVSS | low polyreactivity
32 | QFHLVDSGGGLVQAGGRLRLSCPASGGICYQYAMGWYRQAPGKEREFVAAISRRGGSTYYADSVKGRFTISRDNAKNTVYLQMNSLKPEDTAVYYCAAAPSTRGGYQQMDSWGQGTQVTVSS | high polyreactivity
33 | QVQLVESGGGLVQAGGSLRLSCAASGFIFYDYAMGWYRQAPGKERELVAAISKRGGSTYYADSVKGRFTISRDNAKNTVYLQMNSLKPEDTAVYYCAATSYRRTGYNYWGQGTQVTVSS | high polyreactivity
34 | QVQLVESGGGLVQAGGSLRLSCAASGRTISYYAMVWYRPAPGKERELVAAISSSGGSTYYADSVKGRFTISRDNAKNTFYLQMNSLKPEDTAVYYCAAYQRGNRYDYWGQGTQVTVSS | high polyreactivity
35 | QVQLVESGRALVQAGGSLRVSCAASGRTFDTNAMGWYRQAPGKERELVAVITARGGNTSYADSVKGRFTLSRDNAKNSVYLQMNSLKPEDTAVYYCAARVYRAPWTYDEGNYWGQGTQVTVSS | low polyreactivity
36 | QVQLVESGGGLVQAGGSLRLSCAASGSTFQVYAMGLYRQAPGKERELVASITSGGSTYADSVKGRFTISRDNAKNTVYLQINSLKPEDTAVYYCAAGGYFYPYTYDYWGQGTQVTVSS | low polyreactivity
37 | QVQLVESGGGLVQAGGSLRLSCAASGNTVNFYAMGWYREAPGKERELVASITSGGGTNYADSVKGRFTISRDNAKNTVYLQMNSLKPEETAVYFCAAQFYYHFRFHCDWGQGTQVTVSS | low polyreactivity
38 | QVQLVESGGGLVQAGGSLRLSCAASGRTFVVNAMGWYRQAPGKERELVARITNSGLTNYADSVKGRFTISRDNAKNTVYLQMNSLKPEDTAVYYCNAAASYYVMLSWTRVYYWGQGTQVTVSS | high polyreactivity
39 | HVQLVESGGGLVQAGGSLRLSCAASGFIFRKYAMGWYRQAPGKERELVAAISGRADSTYYADSVKGRFTISRDNAKNTVYLEMISLKPEDTAVYYCAADWLSKIGKGYDYWGQGTQVTVSS | high polyreactivity
40 | QVQLVESGGGLVQAGGSLRLSCPASGRIFYPYPKGWYRQAPGKERELVATITRTGSTYYADSVKGRFTITRDNAKNTVYVQMNSLKPEDPAVYYCAVQRSYVGPRQYNYWGQGTQVTVSS | high polyreactivity
41 | QVQLVESGGGLVQAGGSLRLSCAASGFTFNRYAMGWYRPAPGKERELVAAISRSTATTYYADSVKGRFTISRDNAMNTVYLQMNSLKPEDTAVFYCNSPQRYWPPYGYWGQGTQVTVSS | high polyreactivity
42 | QVQLVESGGGLVQAGGSLRLSCAASGLTFSSNAMGWSRQAPGKERELVAVITNGGSTNYADSVKGRFTISRDNAKNTVYLQMNSLKPEDTAVYYCAKDGGPAQDIGMDYWGQGTQVTVSS | low polyreactivity
43 | QVQLVESGGGLDQAGVSLRLSCAATGRIFYHYAMGWYRHEPGKERELVASITTSGDSTYYADSVKGRFTISRDTAKNTVYLQMNSLKPEDTAVYYCAARSYRGSRYDYWGQGTQVTVSS | high polyreactivity
